T1: CSTF2 (CstF-64) RRM wild type (Homo sapiens, UniProt P33240 1-107)
T1 sequence: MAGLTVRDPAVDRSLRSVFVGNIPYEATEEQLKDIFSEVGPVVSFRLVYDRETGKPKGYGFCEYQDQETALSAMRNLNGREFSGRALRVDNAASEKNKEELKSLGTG

T2: CSTF2 D50A RRM (Homo sapiens, UniProt P33240 1-107, D50A)
T2 sequence: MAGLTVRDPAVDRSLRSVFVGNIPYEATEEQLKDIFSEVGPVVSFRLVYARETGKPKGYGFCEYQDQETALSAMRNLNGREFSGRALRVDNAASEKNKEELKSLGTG


Columns and labels:
[1] = biological target: T1, CSTF2 (CstF-64) RRM wild type; experiment: fluorescence polarization
CSTF2 D50A RRM [2] = biological target: T2, CSTF2 D50A RRM; experiment: fluorescence polarization
[3] = biological target: T1, CSTF2 (CstF-64) RRM wild type; experiment: ITC
CSTF2 D50A RRM [4] = biological target: T2, CSTF2 D50A RRM; experiment: ITC

Row | Binder | Kd [1] | Kd (CSTF2 D50A RRM [2]) | Kd [3] | Kd (CSTF2 D50A RRM [4])
1 | AUUUUAUGUUUCAGGU (ssRNA) [SVL RNA, 3'-fluorescein] | 1450 ± 70 nM | – | – | –
2 | GUGUGUGUGUGUGUGU (ssRNA) [(GU)8 RNA, 3'-fluorescein] | 260 ± 20 nM | 170 ± 10 nM | – | –
3 | AUUUUAUGUUUCAGGU (ssRNA) [SVL RNA, unlabeled] | – | – | 1520 ± 170 nM | 698 ± 60 nM

Source: article PMC7515730
